Measured values reported in article PMC8184817, “Transmission of light signals from the light-oxygen-voltage core via the hydrophobic region of the β-sheet surface in aureochrome-1” (Scientific Reports, 2021).
Residue numbers refer to the chain shown, from its start.

Assays:
Settings in all cases: protein: recombinant; chain copies: 2; label: Alexa Fluor647 (EMSA); biotin (QCM); blunt; self-complementary palindrome, 2 copies
PZ V316A = biological target: T1, PZ V316A (Vaucheria frigida? (VfAUREO1), UniProt A8QW55 113-348, C162S;C182S;V316A); assay: EMSA; QCM; dark state; altered EC50; EMSA: 5% polyacrylamide gel, 25 C, dark or blue light 5 W/m2; QCM: 27 MHz, QCM buffer, 25 C; buffer, salt and pH not given (earlier papers cited); EC50 values (nM, per monomer) only in figures
T1 sequence: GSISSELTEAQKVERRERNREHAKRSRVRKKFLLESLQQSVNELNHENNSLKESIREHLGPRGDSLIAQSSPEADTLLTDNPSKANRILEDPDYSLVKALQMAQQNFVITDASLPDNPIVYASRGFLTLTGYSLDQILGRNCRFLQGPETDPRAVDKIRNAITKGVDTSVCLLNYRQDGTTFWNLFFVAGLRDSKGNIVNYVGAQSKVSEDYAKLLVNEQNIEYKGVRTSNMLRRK

PZ V314A = biological target: T2, PZ V314A (Vaucheria frigida? (VfAUREO1), UniProt A8QW55 113-348, C162S;C182S;V314A); assay: as above
T2 sequence: T1 sequence with V202A, A204V

PZ V314I = biological target: T3, PZ V314I (Vaucheria frigida? (VfAUREO1), UniProt A8QW55 113-348, C162S;C182S;V314I); assay: EMSA; QCM; dark state; EC50 similar to light; EMSA: 5% polyacrylamide gel, 25 C, dark or blue light 5 W/m2; QCM: 27 MHz, QCM buffer, 25 C; buffer, salt and pH not given (earlier papers cited); EC50 values (nM, per monomer) only in figures
T3 sequence: T1 sequence with V202I, A204V

PZ F219V = biological target: T4, PZ F219V (Vaucheria frigida? (VfAUREO1), UniProt A8QW55 113-348, C162S;C182S;F219V); assay: EMSA; QCM; dark state; low EC50; EMSA: 5% polyacrylamide gel, 25 C, dark or blue light 5 W/m2; QCM: 27 MHz, QCM buffer, 25 C; buffer, salt and pH not given (earlier papers cited); EC50 values (nM, per monomer) only in figures
T4 sequence: T1 sequence with F107V, A204V

[1] = biological target: T5, PZ L201A/L208A/L212A (triple) (Vaucheria frigida? (VfAUREO1), UniProt A8QW55 113-348, C162S;C182S;L201A;L208A;L212A); assay: EMSA; QCM; dark state; EC50 lower than wtPZ; EMSA: 5% polyacrylamide gel, 25 C, dark or blue light 5 W/m2; QCM: 27 MHz, QCM buffer, 25 C; buffer, salt and pH not given (earlier papers cited); EC50 values (nM, per monomer) only in figures
T5 sequence: T1 sequence with L89A, L96A, L100A, A204V

PZ L208A = biological target: T6, PZ L208A (Vaucheria frigida? (VfAUREO1), UniProt A8QW55 113-348, C162S;C182S;L208A); assay: as above
T6 sequence: T1 sequence with L96A, A204V

PZ L201A = biological target: T7, PZ L201A (Vaucheria frigida? (VfAUREO1), UniProt A8QW55 113-348, C162S;C182S;L201A); assay: as above
T7 sequence: T1 sequence with L89A, A204V

Measured: binding result

B1: dsApo (dsDNA)
DNA 1: GCTGTCTGACGTCAGACAGC
DNA 2: GCTGTCTGACGTCAGACAGC
binds: all assays above
